From publication PMC6226484

Molecular target: Avi-barnase (G34C/H102A), biotinylated, labeled with Alexa 488
Assay: FRET or BRET; single-molecule FRET; donor-labeled barnase immobilised on PEG-coated glass via biotin-NeutrAvidin, acceptor-labeled barstar (20 nM) in solution; 10 mM Tris pH 7, 0 mM NaCl and higher (printed kA at 0 mM NaCl); 22 °C; illumination 0.3 μW; two-state maximum likelihood analysis with correction for acceptor photobleaching

kon: 1e+08 M⁻¹ s⁻¹
Substance: Cys-barstar, labeled with Alexa 647 (natural protein)
